For 30 sequences, IC50 and Kd results are on record in the Immune Epitope Database (IEDB).

pIC50, pKd: −log10 of the molar value.

The first experiment deals with HLA-A*02:01. The experiment in a line: IEDB peptide-MHC binding, purified MHC/competitive/radioactivity; ≥ and ≤ were set here for values at or beyond the usual limits of such assays. The note with it: source organism: Homo sapiens.
On to SLVENALVV, for which the pIC50 was 6.37.

As to VLETAVGLL, the pIC50 is 6.62.

GLFLSLGLV: the pIC50 is 6.27.

Consider AVMDPFIYA, for which the pIC50 was 6.12.

Regarding SLNSTPTAI, the pIC50 was 6.20.

Regarding LLCLVVFFL, the negative-log IC50 (pIC50) was 6.17.

Turning to ALIICNAII, the pIC50 is 6.05.

On to FLSLGLVSL, for which the pIC50 is 6.69.

For the sequence TILLGIFFL, the pIC50 is 6.34.

As for GLVSLVENA, the pIC50 was 6.27.

In the next experiment the target is HLA-A*02:01. The experiment in a line: IEDB peptide-MHC binding, purified MHC/competitive/radioactivity; filed as Kd, often an IC50 or EC50 that approximates it; ≥ and ≤ were set here for values at or beyond the usual limits of such assays. The note with it: source organism: Homo sapiens.
For the sequence FLAMLVLMA, the pKd is 5.68.

With TLPRARRRV, the pKd was at most 4.60.

Take DLLVSGSNV: the pKd was at most 4.30.

In the case of GLKGAVTLT, the pKd was at most 4.30.

On to SLCFLGAIA, for which the pKd is at most 5.00.

Take LLVSGSNVL: the pKd was 5.85.

For the sequence SVIDPLIYA, the pKd is 5.92.

Consider LVLMAVLYV, for which the pKd was 5.92.

Turning to GLAANQTGA, the pKd was 5.62.

TILIGVFVV: the pKd was 5.34.

In the case of QLGLAANQT, the pKd was at most 4.30.

Take MLARACQHA: the pKd was 5.79.

In the case of YLILIMCNS, the pKd is 5.20.

Take ALVARAAVL: the pKd is 4.95.

For TILLGVFIF, the pKd is 5.34.

Regarding ILLLEAGAL, the negative-log Kd (pKd) was 5.32.

Turning to YLVLINCNS, the pKd was 5.66.

ELRRTLKEV: the pKd was at most 4.30.

For the sequence NGMLIMCNA, the pKd was 4.78.

Regarding ILLGIFFLC, the pKd is 5.26.

As usually defined, the pIC50 is the negative decadic logarithm of the IC50, by convention in mol/L. One may read the pKd as −log10 of the Kd, conventionally taken in molar units.
